Measured values reported in US5874218, “Method for detecting a target compound in a substance using a nucleic acid ligand” (NeXstar Pharmaceuticals, Inc.).

Columns and labels:
[1] = target: hTSH (thyroid stimulating hormone) (Homo sapiens, UniProt P01215;P01222 P01215:25-116,P01222:21-132); assay: dot blot on nitrocellulose, 50-800 nM hTSH, TEM buffer with 0.1% hSA, 0.5 M urea wash; conditions: tags: Becton Dickinson, Mr 27,700, 9 IU/mg; label: internally radiolabeled
Protocol: hTSH was suspended in TEM buffer (300 ml) containing 0.1% hSA (w/v) and applied to pre-wetted nitrocellulose filters (0.45 micron; BioRad) under suction. Gel-purified, internally labeled nucleic acid ligand T-15 (SEQ ID NO: 3) was then applied to the blots in 50 ml of TEM buffer (0.2 pmoles/ml) and filtered gently. Filters were immediately washed three times with 300 ml of 0.5M urea in the same buffer. The blots were dried and analyzed with a phosphorimager and by autoradiography.
The results wherein different concentrations of hTSH (from 800 nM (177 mIU/ml) to 50 nM (11 mIU/ml)) blotted on a nitrocellulose membrane were detected by radiolabeled nucleic acid ligand T-15 are shown in FIG. 4. Very low levels of background binding of RNA to nitrocellulose filters in the absence of hTSH (but with hSA in the buffer) was accomplished by washing blots with 0.5M urea in the binding buffer. This step eliminated most nonspecific binding, yet leaving specific binding of ligand T-15 to hTSH largely unaffected. […] However, with the affinity-selected radiolabeled ligand T-15, the radioactive signal on the blot correlated with the concentration of hTSH used. There is a linear relationship between the radioactive signal and the amount of hTSH up to 100 mIU/ml; the signal saturates above this concentration.

[2] = target: hCG (chorionic gonadotropin) (Homo sapiens, UniProt P01215;P0DN86 P01215:25-116,P0DN86:21-165); assay: dot blot of hCG in urine; detectable at 1.9 nM, saturates above 500 nM; higher signal in low salt buffer with 2 mM MgCl2; conditions: label: radiolabeled
hCG (chorionic gonadotropin), sequence (P01215 25-116, chain 1 of 2, other chains not shown): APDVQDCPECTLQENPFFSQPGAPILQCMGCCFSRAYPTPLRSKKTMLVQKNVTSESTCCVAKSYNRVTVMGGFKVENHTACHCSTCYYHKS
Protocol: Test urine (obtained from pregnant individuals) and control urine (obtained from males) samples were pre-filtered through 0.2 mm polysulfone filters (Gelman Sciences) to remove particulate matter. hCG suspended in control urine to various concentrations (300 ml) was blotted onto pre-wetted nitrocellulose filters (from BioRad) under vacuum. Radiolabeled nucleic acid ligand to hCG, H-42 RNA (SEQ ID NO: 4)(100 ml of 1 pmole/ml) was then added to blots and filtered. Blots were immediately washed two times with 300 ml of TEM buffer. The blots were dried and analyzed by autoradiography and phosphorimager (Fuji).
In preliminary studies, anti-hCG antibodies were first applied to nitrocellulose blots to capture hCG and subsequently the radiolabeled RNA was used to detect the hormone. Such anti-hCG antibodies were required only if hCG was suspended in a buffer. However, if hCG in urine was used there was no significant difference in the signal in the presence and absence of antibodies. This may be due to the presence of other proteins in urine that serve as nonspecific carriers, effectively retaining hCG on the membrane. […] The signal saturates at high hCG concentration (>500 nM). Even at 1.9 nM hCG concentration, signal above background level was detected. Compared to control male urine (blots 1–3), the urine from a pregnant […] […]

hTSH (thyroid stimulating hormone), sequence (P01215 25-116, chain 1 of 2): as the sequence (P01215 25-116, chain 1 of 2, other chains not shown) above
hTSH (thyroid stimulating hormone), sequence (P01222 21-132, chain 2 of 2): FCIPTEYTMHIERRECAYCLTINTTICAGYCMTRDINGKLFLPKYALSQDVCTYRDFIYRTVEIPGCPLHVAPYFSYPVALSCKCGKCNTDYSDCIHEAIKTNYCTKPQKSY

B1: T-15 (ssRNA)
RNA: GGGAGGACGAUGCGGAUGUUGGCAGCAGGGUCCGACGGCGUAACCUUGCCAGCUGCAGACGACUCGCCCGA
modifications: 2'-NH2 on all C and U
Does B1 bind [1]?
Result: binds

B2: H-42 (ssRNA)
RNA: GGGAGGACGAUGCGGACAAGGGCCUGAGUGUGGAGGGCACGUGGAGGGGACUGGCCAGACGACUCGCCCGA
modifications: 2'-NH2 pyrimidines (library chemistry)
Does B2 bind [2]?
Result: binds
